Molecular target: the molecule itself
Assay: crystal structure

B1: MSMEG_3380 (FDR-B family F420H2-dependent reductase), recombinant, for crystallography (enzyme)
chain: MVAVPEGYESLLERPLYGHLATVRPDGTPQVNAMWFAWDGEVLRFTHTTKRQKYRNIKANPAVAMSVIDPDNPYRYLEVRGLVEDIVPDPTGAFYLKLNDRYDGPLTEPPADKADRVIIVVRPTAFSKQ
modifications: seleno-methionine labelled
- binding result: binds

Reference: PMC3034190 (Molecular Microbiology, 2010)
